# In article PMC9445877, “Blockade of TMPRSS2-mediated priming of SARS-CoV-2 by lactoferricin” (Frontiers in Immunology, 2022):
# Entries after “also recorded” stand apart in the source; their conditions may differ.
# Legend:
# [1] = tested on: elastase; assay: In vitro proteolysis assay, elastase; type: biochemical, porcine; conditions: elastase 20 nM; 37°C, Tris-HCl buffer, Boc-Gln-Ala-Arg-AMC
# Protocol: (§1) Figure 1 Effect of LF and the LF-derived peptides pLF1-pLF3 on the activity of serine proteases. Proteolytic activities of purified TMPRSS2 (A), plasmin (B), elastase (C), and trypsin (D) were measured with or without peptides pLF1, pLF2, pLF3, LF or the control peptide pCTR at 37°C in Tris-HCl buffer using the fluorogenic substrate Boc-Gln-Ala-Arg-AMC. The reaction was monitored using an ELISA reader for the indicated time intervals.
# (§2) The proteolytic activities of plasmin (10 nM; from human plasma; #10602361001, Roche Diagnostics GmbH, Mannheim, Germany), trypsin (10 nM; from bovine pancreas; #T1005, Sigma-Aldrich, St. Louis, MO), elastase (20 nM; from porcine pancreas; #E1250, Sigma-Aldrich) and TMPRSS2 (25 nM; recombinant protein produced in mammalian cells; #MBS1193731, MyBioSource, San Diego, CA) were measured in a Nunc black fluorescence-based cell assay plate (Sigma-Aldrich) in Tris-HCl buffer (20 mM, pH 8.0, 150 mM NaCl). […] The reaction was measured using an ELISA plate reader (Synergy H1 BioTek microplate reader, Winooski, Vermont, U.S., or TECAN GENios, GMI, USA) under the excitation wavelength of 380 nm and the emission wavelength of 460 nm at the indicated time points.
# [2] = tested on: COVID-19; conditions: supplementary LF treatment; cited from earlier work
# Description: (§3) The human glycoprotein LF is synthetized by exocrine glands and is present at high concentrations in secretory body fluids, particularly in milk, but also within inflammatory granules of neutrophils. […] This effect was mainly attributed to its immunomodulatory properties ([26]).
# [3] = tested on: SARS-CoV-2; conditions: cited from earlier work
# Description: as §3
# [4] = tested on: SARS-CoV-2 infection, Vero cells; type: cell-based, SARS-CoV-2 (African green monkey cells); conditions: 40 µg/mL, pre-incubation 40-60 min, mean of three independent experiments
# [5] = cited from earlier work
# [6] = tested on: SARS-CoV-1; conditions: cited from earlier work
# [7] = tested on: SARS-CoV-2; conditions: cited from earlier work; remark: listed apart in the source
# [8] = target: T1, TMPRSS2 (Homo sapiens, UniProt O15393); assay: In vitro proteolysis assay, TMPRSS2, fluorogenic substrate Boc-Gln-Ala-Arg-AMC; type: biochemical
# T1 construct: TMPRSS2 (25 nM; recombinant protein produced in mammalian cells; #MBS1193731, MyBioSource, San Diego, CA); purchased MyBioSource, San Diego, CA #MBS1193731; host or cells: mammalian cells
# Protocol: as §1, §2
# [9] = cited from earlier work; remark: listed apart in the source
# [10] = tested on: SARS-CoV-2; type: cell-based; conditions: summary statement
# [11] = tested on: SARS-CoV-2 infection, Calu-3 cells; type: cell-based, SARS-CoV-2 (human cells); conditions: concentration not given, pre-incubation approx. 1 h, four independent experiments
# [12] = target: T2, plasmin (Homo sapiens, UniProt P00747); assay: In vitro proteolysis assay, plasmin; type: biochemical; conditions: 37°C
# T2 construct: purchased Roche Diagnostics GmbH, Mannheim, Germany #10602361001; host or cells: human plasma
# Protocol: as §1
# as §2, with “points. […]” for “points.”
# [13] = tested on: plasminogen; conditions: cited from earlier work
# Description: Since structures of the catalytic domains of serine proteases display a high level of identity ([10]), we have tested the inhibitory effect of LF and three LF-derived synthetic peptides against other serine proteases, including TMPRSS2, elastase and trypsin, in addition to plasmin. […] In contrast, uPA-independent Plg conversion by the bacterial enzyme streptokinase was not affected by LF ([11]). […] Similarly, only pLF1 but neith ...
# T2 sequence (P00747 581-810 limits assumed): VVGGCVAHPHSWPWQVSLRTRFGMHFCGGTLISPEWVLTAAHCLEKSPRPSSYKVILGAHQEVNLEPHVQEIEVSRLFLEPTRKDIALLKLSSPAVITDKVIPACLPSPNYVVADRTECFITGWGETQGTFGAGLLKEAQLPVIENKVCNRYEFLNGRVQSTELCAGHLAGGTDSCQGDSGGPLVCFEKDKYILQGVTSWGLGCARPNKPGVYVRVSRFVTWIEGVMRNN
# T2 sequence (P00747 97-580 limits assumed): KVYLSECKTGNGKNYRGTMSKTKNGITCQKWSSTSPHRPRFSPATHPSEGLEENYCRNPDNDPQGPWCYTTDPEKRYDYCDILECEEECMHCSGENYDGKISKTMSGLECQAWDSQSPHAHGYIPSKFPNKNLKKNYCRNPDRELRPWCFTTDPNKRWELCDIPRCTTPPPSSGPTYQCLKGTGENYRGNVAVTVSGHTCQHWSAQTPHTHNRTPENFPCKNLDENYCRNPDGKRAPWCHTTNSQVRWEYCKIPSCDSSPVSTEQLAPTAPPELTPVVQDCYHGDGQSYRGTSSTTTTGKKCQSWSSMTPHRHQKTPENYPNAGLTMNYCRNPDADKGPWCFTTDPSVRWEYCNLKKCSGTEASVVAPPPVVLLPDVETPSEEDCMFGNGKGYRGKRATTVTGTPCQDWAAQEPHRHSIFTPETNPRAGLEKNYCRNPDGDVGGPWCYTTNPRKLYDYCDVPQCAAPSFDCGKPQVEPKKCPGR
# T1 sequence (O15393 256-492 limits assumed): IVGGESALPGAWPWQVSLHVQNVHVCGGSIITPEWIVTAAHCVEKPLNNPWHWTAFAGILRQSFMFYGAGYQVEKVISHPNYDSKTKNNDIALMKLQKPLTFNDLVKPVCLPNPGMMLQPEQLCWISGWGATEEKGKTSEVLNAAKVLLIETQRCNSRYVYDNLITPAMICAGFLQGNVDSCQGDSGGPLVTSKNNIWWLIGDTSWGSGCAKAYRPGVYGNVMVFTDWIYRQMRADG
# T1 sequence (O15393 106-255 limits assumed): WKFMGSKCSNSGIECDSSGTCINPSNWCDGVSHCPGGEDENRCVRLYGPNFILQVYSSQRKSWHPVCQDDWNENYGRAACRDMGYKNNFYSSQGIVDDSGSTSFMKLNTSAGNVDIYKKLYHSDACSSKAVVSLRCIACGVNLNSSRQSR
molecule,measurement,setting,value
"LF: human milk glycoprotein lactoferrin; recombinant human LF (L1294, Sigma-Aldrich) (protein, UniProt P02788 1-710, looked up, full-length) MKLVFLVLLFLGALGLCLAGRRRSVQWCAVSQPEATKCFQWQRNMRKVRGPPVSCIKRDSPIQCIQAIAENRADAVTLDGGFIYEAGLAPYKLRPVAAEVYGTERQPRTHYYAVAVVKKGGSFQLNELQGLKSCHTGLRRTAGWNVPIGTLRPFLNWTGPPEPIEAAVARFFSASCVPGADKGQFPNLCRLCAGTGENKCAFSSQEPYFSYSGAFKCLRDGAGDVAFIRESTVFEDLSDEAERDEYELLCPDNTRKPVDKFKDCHLARVPSHAVVARSVNGKEDAIWNLLRQAQEKFGKDKSPKFQLFGSPSGQKDLLFKDSAIGFSRVPPRIDSGLYLGSGYFTAIQNLRKSEEEVAARRARVVWCAVGEQELRKCNQWSGLSEGSVTCSSASTTEDCIALVLKGEADAMSLDGGYVYTAGKCGLVPVLAENYKSQQSSDPDPNCVDRPVEGYLAVAVVRRSDTSLTWNSVKGKKSCHTAVDRTAGWNIPMGLLFNQTGSCKFDEYFSQSCAPGSDPRSNLCALCIGDEQGENKCVPNSNERYYGYTGAFRCLAENAGDVAFVKDVTVLQNTDGNNNEAWAKDLKLADFALLCLDGKRKPVTEARSCHLAMAPNHAVVSRMDKVERLKQVLLHQQAKFGRNGSDCPDKFCLFQSETKNLLFNDNTECLARLHGKTTYEKYLGPQYVAGITNLKKCSTSPLLEACEFLRK",inhibition of proteolytic activity of elastase (in words),[1],"neither full-length LF nor other tested peptides derived from LF, nor the control peptide pCTR, significantly reduced"
same,COVID-19 symptoms in clinical study (in words),[2],significantly reduced COVID-19 symptoms
same,SARS-CoV-2 infection in vitro (in words),[3],found to inhibit SARS-CoV-2 infection in vitro
same,"inhibition of SARS-CoV-2 infection, Vero cells, 40 µg/mL",[4],≈ 38%
same,"clinical benefit, oral (in words)","[5]; in vivo, po","major clinical benefit in human, particularly neonatal medicine"
same,"safety, oral (in words)",[5]; orally administered,considered safe and without adverse effects
same,SARS-CoV-1 infection (in words),[6],inhibited the SARS-CoV-1 infection
same,interferon responses (in words),[7],enhancement of interferon responses
same,iron homeostasis (in words),[7],maintenance of iron homeostasis
same,viral replication (in words),[7],inhibition of viral replication
same,inhibition of proteolytic activity of TMPRSS2 (in words),"[8]; 37°C, Tris-HCl buffer, Boc-Gln-Ala-Arg-AMC","not able to block TMPRSS2 activity; also recorded: neither full-length LF nor pCTR inhibited; also recorded: did not block TMPRSS2 activity; also recorded: neither full-length LF nor other tested peptides derived from LF, nor the control peptide pCTR, significantly reduced"
same,dose dependence of inhibition of TMPRSS2 (in words),[8]; Figure 1A inset,no dose-dependent inhibition; also recorded: not by LF
same,binding to heparin and HSPGs (in words),[9],LF binding to both heparin and HSPGs was observed
same,SARS-CoV-2 infection of permissive cells (in words),[10],prevented SARS-CoV-2 infection
same,"inhibition of SARS-CoV-2 infection, Calu-3 cells",[11],60-70%
same,dose dependence of inhibition of active plasmin (in words),[12]; Figure 1B inset: S-2251 in PBS,no dose-dependent inhibition; also recorded: not by LF
same,inhibition of proteolytic activity of plasmin (in words),"[12]; plasmin 10 nM, Tris-HCl buffer, Boc-Gln-Ala-Arg-AMC","neither full-length LF nor a control peptide (pCTR), was able to inhibit; also recorded: neither full-length LF nor other tested peptides derived from LF, nor the control peptide pCTR, significantly reduced"
same,binding to plasminogen (in words),[13],binds to Plg via its highly cationic N-terminal region; also recorded: bound to Plg via its highly cationic N-terminal region
same,inhibition of plasminogen conversion to plasmin (in words),[13],able to inhibit activation of Plg through hindering the action of urokinase-type plasminogen activator (uPA); also recorded: blocked Plg conversion to the active serine protease plasmin
same,uPA-independent plasminogen conversion by streptokinase (in words),[13]; streptokinase as activator,not affected
